Blank lines part the entries; values can stand above or below the molecule they belong to.
Legend:
Assay in all cases: cryo-EM structure; in situ cryo-electron tomography with subtomogram averaging of about 200 nm cryo-FIB lamellae of wild-type mouse sperm; local maps of 5.5 Å to 18 Å; AlphaFold2 models fitted into the density
[1] = biological target: SPATA17 (mouse (endogenous in sperm)) (UniProt Q9D552)
[2] = biological target: GMCL1 (BTBD16) (mouse (endogenous in sperm)) (UniProt Q920G9)
[3] = biological target: the molecule itself

SPATA17 (mouse (endogenous in sperm)), sequence (Q9D552 whole entry): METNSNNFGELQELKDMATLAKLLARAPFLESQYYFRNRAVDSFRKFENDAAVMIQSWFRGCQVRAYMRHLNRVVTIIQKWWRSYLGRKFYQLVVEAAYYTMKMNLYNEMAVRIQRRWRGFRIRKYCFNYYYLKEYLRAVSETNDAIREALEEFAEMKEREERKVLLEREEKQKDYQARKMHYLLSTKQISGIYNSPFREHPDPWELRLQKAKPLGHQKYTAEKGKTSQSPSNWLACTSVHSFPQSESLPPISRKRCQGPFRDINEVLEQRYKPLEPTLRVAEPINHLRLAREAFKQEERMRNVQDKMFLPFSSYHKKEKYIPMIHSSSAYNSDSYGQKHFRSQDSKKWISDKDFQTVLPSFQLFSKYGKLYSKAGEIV

- stoichiometry N [1]: 3
Molecule: calmodulin (CaM) (from UniProt P0DP26 1-149) (natural protein)

- stoichiometry N [2]: 2
Molecule: GMCL1 (BTBD16) (from UniProt Q920G9 1-524) (natural protein)

B1: CFAP70 (natural protein, mouse (endogenous in sperm), UniProt D3YVL2 1-1141, looked up)
chain: MDQTSSTTKIVHITVTNGYDLKGFKGDTPVTFVRAEFNQTVLGDSSKVTVSPEGTAKYNFTSNIDLSPDGGGALDDLAHKPLFLTVTEVLPKEKKQKDEKTLILGQAVVDLLPLLEGEESFETTVPLHPVPGSPLETPLPGSKQCSLDVKVFVAEPLLTPAQVSASNLLKVTLEAAYSVPESFIPVGPQQNYMVGLQVPSVGEKDYTMIFKNGNLKLGGEKEPVPRPKKWPIANILAPGASNIPDEFIVGGPYEEEEGELNHPEDREFRNQAECTKKRIVWDLESRCFLHPFAVASFQKRIADCRLWPVEITRVPLVVMPKAKPGKLEKIDDENQLSFHGVAYINMVPLLYPGVKKIRGAFHVYPYLDGTVFEKTKCLFSLFRDTGHHLVQNNKAGGLNSPLSKPLSKNLKEEKPGKDKDTEGRPRLGELQAPSIKSQSSDTPLESEAPLSHNLEGQQYIEAGTYIVLEIQLEKALVPKRMPEELARRVKEMIPPRPPLTRRTGGAQKAVSDYHTQIKSISRAILNEYYRMFGKQGPKLESDIDNETMEERKCQLNYELNCSGKYFAFKEQLKHAVVKIVREKYLKTTAFESQEELQTFISELYVFLVDQMHVALNQAVPDDVPSSTSTIQTSSEQLRLFAFEAEVNEKFEIAAMYYEERLVREPQNLENWLDYGAFCLLTEDNIKAQECFRKALSLNESHVDSLLLCGVLAILLENYEQAEIFFEDATCLEPTNVIAWTLLGLFYEIQNNDIRMEMAFHEAFKQLQARTLQTKLKSTVTIENMEEGVKVEPSFGPWGVVQESTTAIKTEGLSGMRPQSSHQLSPHTNMELHPQPQGPNTALSSLDEFLEESPKAQSESQEPMATGQPLEPSLVQRSSNALLKELTSKKDISKCQDSSAFSPPTQHVIAQPPVTIFMETIRFLMKVNAVQFVHRVLAHELLCPQGGPSCEYYLVLAQTHLLKKDFAKTEEYLQQAAQMDYLNPNVWGVKGHLYFLSGNHAEAKECYERTISFVVDASEMHFIFLRLGHIYLEEKEYENAKRTYMHACKRSPSCLTWLGLGIACYRLEELTEAEDALSEANALNNCNAEVWAYLALVCLKVGRQLEAEQAYKYTIKLKLKDQALLEEIHTVQEMVGFGNPSF
notes: CFAP70, mouse; The CFAP70 dimer was predicted with AlphaFold2 Multimer before fitting; source: endogenous, in intact mouse sperm (cryo-FIB lamellae)
- stoichiometry N [3]: 2

B2: SPAG16 (natural protein, mouse (endogenous in sperm), UniProt Q8K450 1-639, looked up)
chain: MAAPSGVPPLRVLEELGIGLSPTGEVTEAVTSEGAYYLEQVTITETSEDECEYEEIPDDNFSIPEGEEDLEKAIHIIGEQARDIHILEQQTILPARNVMQEAIEDFLCNFLIKMGMTRTLDCFQAEWYELIQKKGSDFKGLGNVPDVYSQVMLLETENKNLKKELKHFKQAAEKAKEDLLRTQKERDFHRMHHKRIVQEKNKLIADLKGLKLHYASYEPTIRVLHEKHHALLKEKMLTSLERDRAVGKISGLQATLKNIDMGHIQVPVIKGSYESASITRESGDRAGHSCEKENSSEGPTQKSLREAREEVGYKSKLKNEKKDSEFPVDMQPDPNVTSCTENVSAAKFDYKLNNIFRLHELPVSCIVMHPCRDYLISCSEDRLWKMVGLPQGNVLLTGSGHTDWLSGCCFHPSGSKLATSSGDSTIKLWDLNKGECTLTLEGHNHAVWSCTWHSCGDFVASASLDMTSKIWDVNSERCRYTLYGHTDSVNSIEFFPFSNILLTASADKTLSVWDARTGKCEQSLYGHMHSVNDATFTPRGHIIASCDARGVTKLWDFRKLIPIVSIDVGPSSGNEVNFDQSGRVLAQASANGIIHLLDLKSGQIHKLVGHESEVHSVVFSHLGENLYSGGSDGTIRLWI
notes: SPAG16, mouse, with a coiled-coil domain and a C-terminal β-propeller domain; Adjacent copies dimerise through the coiled-coil domain; also called PF20 homolog; source: endogenous, in intact mouse sperm (cryo-FIB lamellae)
- stoichiometry N [3]: 2
